Target: Thrombin (UniProt P00734+P00734)
Test: EMSA
Conditions: 0.1 nM aptamer, thrombin 0.1-12.8 nM; more than half bound at 0.1 nM thrombin

## NTAGGDTGGGTAGGGTGGTNAGGGWTGATGYGTGGTAGGC [Bivalent aptamer AD]
  Kd: < 0.1 nM

Reference: US11168320
